Reference: the RNAGym collection of RNA variant scans (doi:10.1073/pnas.2313332121)

B1: TPR t1 (parent)
chain: GACCAAUCUGCCCUCAGAGCUCGAGAACAUCUUCGGAUGCAGAGGAGGCAGGCUUCGGUGGCGCGAUAGCGCCAACGUCCUCAACCUCCAAUGCAUCCCACCACAUGAUGAUGCCUGAAGAGCCUUGGUUUUUUG

Variants of: B1
Assay: polymerase ribozyme fitness, log enrichment relative to wild type (log ratio); higher = more active; in vitro selection for triplet polymerase activity
Procedure, shortened: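 Mutant libraries of both subunits of a heterodimeric triplet polymerase ribozyme were PCR-built, transcribed, and selected once in triplicate, with frozen incubation at −7 °C and capture of gel-excised extended constructs on streptavidin beads before RT-PCR. Illumina sequencing of input and output libraries was filtered to genotypes with ≥10 input reads and ≥1 read per output. Fitness is the logarithm of genotype enrichment over wild-type enrichment, using inverse-variance-weighted replicate averages. The logarithm is base 2.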

Variant | polymerase ribozyme fitness (log ratio)
C13U U92C C104U | -1.33
C13U C34U A111C C124U | -5.41
C13A G23U G61C C88U C98G U112A G113A | -5.88
C13U G110U | -1.02
C13A G61U A91U | -2.53
C13U U21C C64U | -0.0953
C13U G42U | -1.12
C13U C72U U92C A105G | -5.23
C13A G17C | -4.33
C13A U106A G110A | -2.53
C12U G71C | -0.564
C13G C114U | -2.83
C13G U106C | -2.21
C13U U59C C70G | -4.01
C13U G39A A68C A91G C123A | -7.34
C12U G135U | 0.000607
C13A G120A | -0.19
C13G C22A G45U G77A A111U | -6.13
C13G G48U | -2.21
C13A G58C | -1.37
C13A C20U G42U G44A C102U G127C | -6.04
C13G A41C C97A C115A G128A | -7.05
C13U G19U G52U C64U | -3.78
C13U G93C | -0.682

Variant | polymerase ribozyme fitness (log ratio)
C13U C22A A26C C56G G122A | -4.98
C13A C104U A118C C124A | -0.374
C13U C15A G63C | -4.06
C13U U14A G71A C82G | -2.67
C13G C56A | -1.9
C13G U112A G113A | -2.13
C13U G19C G48U | -3.4
C13A A119U | 0.145
C13G G45U C82U G113A | -2.94
C13G G47U | -3.12
C13U C53G C56A G65A | -7.29
C13A U38A C53U C89A | -4.39
C13U A108G G120A | -1.12
C13U G63A C64U | -4.34
C13G G60U G93A C104U U129A | -4.29
C13G C86G A90C A95G | -4.51
C12U G61U C88A | -0.482
C13U C20G G63C | -4.8
C13A G61C | -1.81
C13U C102A | -2.14
C13A U129A | -2.8
C13G G17U C64U G93C | -4.19
U14A A50C U125G | -3.97
C13G A43G | -3.37

Variant | polymerase ribozyme fitness (log ratio)
C13A C72G C94A C124A | 0.278
C12U G63A U106G | -3.38
C12U U21G C88U | -2.37
C13A A29G U32A G39A G120A U126A U130G U134C | -2.77
C12U G77C | 0.201
C13G C40G C123G | -0.377
C12U G69A | -2
C13A C72U | -1.96
C13G C40A G63C G117U U133G | -6.59
C13A G110C | -4.52
C13G A83C A121G | 1.65
C13U A50U G52C C53A U87A | -3.76
C13G G71A G128U | -4.42
C13A G39C U59G C104U | -1.47
C13A A16G G61A C79G G113C | -5.27
C13A C20A | -3.84
C13U G35A C86G | -3.98
C13G G63U C123A | -0.659
U14A A74C C76A A121C | -1.88
C13A C20U C72U | -2.59
C13G U21A G52C G61U A91C G120C | -2.36
C13G C53G G63A | -2.67
C13G C104A G110U | -6.08
C13U A43C A50U C73U C86U U96G A108U G117U | -6.8

Variant | polymerase ribozyme fitness (log ratio)
C13U U21A A27G G61C C99U | -6.29
C13G C82A C102A U130G | -4.93
C13U G93A C114G | -2.39
C12U U14A C40A C72U A105C | -4.37
C13A C123G | -0.0402
C13A C123U | 0.793
C13G A37U U38C C62U | -4.23
C13G C124G | 0.288
C13G C124A | 1.06
C13A G61A A66U A121U U129G | -0.637
C13G G47A U54C | -2.54
U14A A18U C73A G77C A119U | -3.61
C13A G60U A91U G120A | -2.31
C13G G23U A29C G69A C97A U112G U126G | -6.55
C13G G69A | -3.66
C13U U30C C56U A121C U130G | -1.57
C13G G63U C102A | -5.61
C13G U132A | -1.5
C12U G48A U54G A121U U129G | 0.00313
C13G C98U | -2.7
C13G A50U G61U | -3.51
U14A A46C U112A A119G G122C | -0.328
C12U U14A C40A A105C | -3.92
C13U A121C | 1.84

Variant | polymerase ribozyme fitness (log ratio)
C13U A46U | -0.902
C13G A66U | -2.18
C13G C53A | -1.86
C13A A43C G44A C72U C76U U126A | -5.92
C13U G52C C94G A100U G113A | -2.95
C13U C56U G60C C73A | -0.677
C13G G63C C70A C124A | 0.905
C13G G42U | -2.84
C12U U112C | 1.26
C13A C40A | -2.4
C13U C70A A84U | -1.83
C13U C28G C53G U78G C88A U106A G110A A111G | -1.49
C13U U78A | 0.102
C13A G47A | -2.5
C12U U14G U32C G51A C56U G57U G127A | -5.28
C13U C62U G63C U112A | -0.823
U14A A37U G93U U132A | -4.47
C13U U21C C80U A90U | -1.82
C12U U38C G107A G117C C123A | -5.15
C13A C62A G120U | -1.17
C13U C56G | 0.205
C13G G69A U132A | -3.7
C12U G61U U109G G120U | -4.29
C13A G36C G60U A66U A95C | -6.15

Variant | polymerase ribozyme fitness (log ratio)
C12U U92G U96A | -2.63
C13U G44U C56A | -1.59
U14A A18U C31G U38G G107A C124A | -6.73
C13A C53A C115U A119U | 0.949
C13G A90U C124U U129C | -3.28
C13U C123U U132A | 1.91
C13U C123U | 1.41
C12U G61U A105U | -1.42
C13U C15G G57U G93A G117A | -1.62
C13A A29G C73G C79U U125G | -4.63
C13G G113A | -2.45
C12U G113A U125A | -0.67
C13G A50G G51C G57U A74U | -3.43
C13A C40A C56U | -2.79
C13A A46G U125G | -3.19
C13U C15G A50G G61A | -1.6
C13G G128C | -3.48
C13A A111U | -4.17
C13A A111C | -1.39
C13U G135U | -0.441
C13U G17U | -2.37
C13A G52A G128C | -4.3
C13U C40A G120A U131G | -0.101
C12U G120C | 2

Variant | polymerase ribozyme fitness (log ratio)
C12U G120A | 1.63
C13U C40G G42A C79A | -4.76
C13U A37U C64U U92A U126C | -3.51
C13A A50U C72A | -3.71
C13U C15U A37U A41U U59G | -1.74
C13A C76G | -2.51
U14A A46C G69A C101U G110U U126A | -6.24
C13A C28G C49A A75U A103G G107U U112C | -6.59
C13G A108G | -3.4
C13U G60C | -0.502
C13G C49G | -2.28
C13U U32C G93C A95G | -1.09
C13U C70A | -0.46
C13G C34G | -5.23
C13G U32C C85G | -4
C13U G61C | -1.59
C13A G39U C56A | -2.45
C13U G113U | -2.4
C13G C88A U130G | -3.24
C13G G52U A75G | -3.6
C13G G69C C94U C115U G135A | -3.43
C13G C62G G117C | -8.19
C13A G23A A66G G69A U78C C85U A90U U96G C123U | -6.29
